Where two headings read alike, the source gives them in different places. Numbered stars: 1 amine (or outer) side, 2 acyl side, 3 side chain; on linkers, the order of the positions; unused ones are H or OH. Square brackets hold non-standard residues; d marks the D form. Peptide text beside a SMILES is read from it. * marks the point of attachment. Pipz(1-CH2CO,4-CH2CH2NH) = O=C(CN1CCN(CCN[*:1])CC1)[*:2]; X1 = CC[C@@]1(O*)C(=O)OCc2c1cc1n(c2=O)Cc2cc3ccccc3nc2-1; Suc = O=C(CCC(=O)[*:2])[*:1]; Nle = CCCC[C@H](N)C(=O)O; AEEA = NCCOCCOCC(=O)O; GABA = NCCCC(=O)O; βAla = NCCC(=O)O
Assays:
hSSTR-4 = molecular target: T1, hSSTR-4 (Homo sapiens, UniProt P31391); assay: Somatostatin receptor radioligand binding, hSSTR-4 (CHO-K1 membranes); details: read-out: Ki hSSTR4 ± (SEM)
T1 construct: expressed in transfected cells; host or cells: CHO-K1
Procedure: For the hSSTR-1, hSSTR-3, and hSSTR-4 assays, aliquots of the membrane preparations were incubated for 90 minutes at 25° C. with 0.05 nM [^125I-Tyr11]SRIF-14 in 50 mM HEPES (pH 7.4) buffer containing 0.2% BSA and 5 mM MgCl2. The final assay volume was 0.3 ml. For the hSSTR-2 and hSSTR-5 assays, [^125I]-[4-(2-hydroxyethyl)]-1-piperazinylacetyl-D-Phe-c(Cys-Tyr-D-Trp-Lys-Abu-Cys)-Thr-NH2 (0.05 nM) and [^125I]-D-Phe-c(Cys-Tyr-D-Trp-Lys-Val-Cys)-Thr-NH2 were employed as the radioligands, respectively.

hSSTR-1 = molecular target: T2, hSSTR-1 (Homo sapiens, UniProt P30872); assay: Somatostatin receptor radioligand binding, hSSTR-1 (CHO-K1 membranes); details: read-out: Ki hSSTR1 ± (SEM)
T2 construct: expressed in transfected cells; host or cells: CHO-K1
Procedure: Membranes for in vitro receptor binding assays were obtained by homogenizing (Polytron setting 6, 15 sec) CHO-K1 cells expressing human somatostatin receptor subtypes hSSTR-1, hSSTR-2, hSSTR-3, hSSTR-4 or hSSTR-5 in ice-cold 50 mM Tris-HCl. The homogenized cells were centrifuged twice at 39,000 g for 10 minutes with an intermediate resuspension in fresh buffer. The final pellets were resuspended in 10 mM Tris-HCl to prepare the cell membrane homogenate for use in the binding assay.
The final assay volume was 0.3 ml.
The cell membrane homogenate was incubated with the radioligands for 90 minutes at 25° C. The incubations were terminated by rapid filtration through GF/C filters pre-soaked in 0.3% polyethylenimine using a Brandel® filtration manifold (Gaithersberg, Md., U.S.A.). Each tube and filter was washed three times with 5-ml aliquots of ice-cold buffer. Specific binding was defined as the total radioligand bound minus that bound in the presence of 1000 nM SRIF-14 (for hSSTR-1, hSSTR-3, hSSTR-4 or hSSTR-5), or 1000 nM DPhe-c(Cys-Tyr-D-Trp-Lys-Abu-Cys)-Thr-NH2 for hSSTR-2.

[1] = Half-life determination in mouse plasma (LC-MS); type: in vitro ADME; details: 37° C.
Procedure: (§1) Samples containing approximately 50 μg/ml up to and including approximately 500 μg/ml of test compound according to Formula IA or IB or II was added to 450 μl human or mouse plasma, vortexed briefly and incubated at 37° C. At various time intervals, e.g., 0, 0.5, 1, 2, 4, 6, 8, 24, 36 and 48 hours, 50 μl of the compound-plasma mixture was added to 150 μl acetonitrile in a microcentrifuge tube. The mixture was vortexed, centrifuged for 5 minutes at 10K RPM, and 135 μl of supernatant was transferred to an injection vial. The recovered supernatant was analyzed by using a liquid chromatography-mass spectrophotometer system (LC-MS) consisting of a Finnigan Deca XP® mass spectrometer with an ESI probe at the positive ion mode. HPLC separation was carried out on a Luna 3μ C8 (2)® 3×50 mm column with a gradient decreasing from 100% A to 80% B for 10 minutes at a flow rate of 0.25 ml/min. Buffer A was 0.1% acetic acid in water and buffer B was 0.1% acetic acid acetonitrile.

[2] = Half-life determination in human plasma (LC-MS); type: in vitro ADME; details: 37° C.
Procedure: as §1

[3] = [125I-Tyr11]SRIF-14, value of 1000 indicates at least 1000

T2 sequence (P30872 whole entry): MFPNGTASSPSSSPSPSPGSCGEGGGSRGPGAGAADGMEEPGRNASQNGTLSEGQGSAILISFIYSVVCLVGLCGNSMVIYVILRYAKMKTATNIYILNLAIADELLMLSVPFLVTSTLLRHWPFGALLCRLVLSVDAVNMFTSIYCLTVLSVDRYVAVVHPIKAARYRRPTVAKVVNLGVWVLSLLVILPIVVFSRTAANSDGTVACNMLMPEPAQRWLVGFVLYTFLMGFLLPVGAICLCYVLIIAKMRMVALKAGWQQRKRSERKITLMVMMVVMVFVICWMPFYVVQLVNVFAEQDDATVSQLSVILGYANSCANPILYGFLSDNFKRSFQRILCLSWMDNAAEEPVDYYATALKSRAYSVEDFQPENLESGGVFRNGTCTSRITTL
T1 sequence (P31391 whole entry): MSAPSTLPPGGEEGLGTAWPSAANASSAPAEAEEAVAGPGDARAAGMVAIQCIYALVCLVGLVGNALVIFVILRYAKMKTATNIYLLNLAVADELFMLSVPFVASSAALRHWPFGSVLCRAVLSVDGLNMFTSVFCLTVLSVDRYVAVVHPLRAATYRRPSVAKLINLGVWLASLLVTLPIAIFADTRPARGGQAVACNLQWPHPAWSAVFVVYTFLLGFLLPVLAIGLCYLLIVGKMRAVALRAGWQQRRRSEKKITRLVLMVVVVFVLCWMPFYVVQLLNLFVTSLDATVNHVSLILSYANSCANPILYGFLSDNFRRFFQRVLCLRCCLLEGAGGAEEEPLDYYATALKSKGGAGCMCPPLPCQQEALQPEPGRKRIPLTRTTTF

| Compound | Ki (hSSTR-4; [3]) [nM] | Ki (hSSTR-1; [3]) [nM] | half-life [1] [h] | half-life [2] [h] | Ki (hSSTR-4) [nM] | Ki (hSSTR-1) [nM] |
| --- | --- | --- | --- | --- | --- | --- |
| Camptothecin-rvD-Glu-Suc-(Doc)4-Aepa-D-Phe-c(Cys-Tyr-D-Trp-Lys-Abu-Cys)-Thr-NH2 and Camptothecin-rvGlu-Suc-(Doc)4-Aepa-D-Phe-c(Cys-Tyr-D-Trp-Lys-Abu-Cys)-Thr-NH2 [Example 6] | ≥ 1000 | ≥ 1000 | – | – | – | – |
| CCCC[C@H](NC(=O)[C@H](CC(C)C)NC(=O)[C@H](Cc1c[nH]cn1)NC(=O)CCNC(=O)[C@@H](NC(=O)[C@H](C)NC(=O)[C@H](Cc1c[nH]c2ccccc12)NC(=O)[C@H](CCC(N)=O)NC(=O)[C@@H](Cc1ccc(O)cc1)NC(=O)[C@@H](CO)NC(=O)[C@H](CCCCN)NC(=O)COCCOCCNC(=O)COCCOCCNC(=O)COCCOCCNC(=O)COCCOCCNC(=O)CCC(=O)NCC(=O)O[C@]1(CC)C(=O)OCc2c1cc1n(c2=O)Cc2cc3ccccc3nc2-1)C(C)C)C(N)=O [Example 25, Camptothecin-rvGly-Suc-(Doc)4-Lys-D-Ser-D-Tyr-Gln-Trp-Ala-Val-β-Ala-His-Leu-Nle-NH2] ({X1-Gly-Suc-AEEA-AEEA-AEEA-AEEA}-K[dS][dY]QWAV[βAla]HL[Nle]-NH2) | – | – | 2.6 | 2.4 | – | – |
| CCCC[C@H](NC(=O)[C@H](CC(C)C)NC(=O)[C@H](Cc1c[nH]cn1)NC(=O)CCNC(=O)[C@@H](NC(=O)[C@H](C)NC(=O)[C@H](Cc1c[nH]c2ccccc12)NC(=O)[C@H](CCC(N)=O)NC(=O)[C@@H](Cc1ccc(O)cc1)NC(=O)[C@@H](CO)NC(=O)CCCNC(=O)CN1CCN(CCNC(=O)COCCOCCNC(=O)COCCOCCNC(=O)COCCOCCNC(=O)COCCOCCNC(=O)CCC(=O)NCC(=O)O[C@]2(CC)C(=O)OCc3c2cc2n(c3=O)Cc3cc4ccccc4nc3-2)CC1)C(C)C)C(N)=O [Example 28, Camptothecin-rvGly-Suc-(Doc)4-Aepa-Gaba-D-Ser-D-Tyr-Gln-Trp-Ala-Val-β-Ala-His-Leu-Nle-NH2] ({X1-Gly-Suc-AEEA-AEEA-AEEA-AEEA}-[Pipz(1-CH2CO,4-CH2CH2NH)][GABA][dS][dY]QWAV[βAla]HL[Nle]-NH2) | – | – | 2.9 | 1.9 | – | – |
| CC[C@@H]1NC(=O)[C@H](CCCCN)NC(=O)[C@@H](Cc2c[nH]c3ccccc23)NC(=O)[C@H](Cc2ccc(O)cc2)NC(=O)[C@@H](NC(=O)[C@@H](Cc2ccccc2)NC(=O)CN2CCN(CCNC(=O)COCCOCCNC(=O)COCCOCCNC(=O)COCCOCCNC(=O)COCCOCCNC(=O)CCC(=O)N[C@H](C(=O)O[C@]3(CC)C(=O)OCc4c3cc3n(c4=O)Cc4cc5ccccc5nc4-3)C(C)C)CC2)CSSC[C@@H](C(=O)N[C@H](C(N)=O)[C@@H](C)O)NC1=O [Example 15, Camptothecin-rvVal-Suc-(Doc)4-Aepa-D-Phe-c(Cys-Tyr-D-Trp-Lys-Abu-Cys)-Thr-NH2] | – | – | 5 | 0.4 | ≥ 1000 | ≥ 1000 |
| CC[C@@H]1NC(=O)[C@H](CCCCN)NC(=O)[C@@H](Cc2c[nH]c3ccccc23)NC(=O)[C@H](Cc2ccc(O)cc2)NC(=O)[C@@H](NC(=O)[C@@H](Cc2ccccc2)NC(=O)CN2CCN(CCNC(=O)COCCOCCNC(=O)COCCOCCNC(=O)COCCOCCNC(=O)COCCOCCNC(=O)CCCC(=O)O[C@]3(CC)C(=O)OCc4c3cc3n(c4=O)Cc4cc5ccccc5nc4-3)CC2)CSSC[C@@H](C(=O)N[C@H](C(N)=O)[C@@H](C)O)NC1=O [Example 16, Camptothecin-Glut-(Doc)4-Aepa-D-Phe-c(Cys-Tyr-D-Trp-Lys-Abu-Cys)-Thr-NH2] | – | – | 4.2 | 3.6 | ≥ 1000 | ≥ 1000 |
| CC[C@@H]1NC(=O)[C@H](CCCCN)NC(=O)[C@@H](Cc2c[nH]c3ccccc23)NC(=O)[C@H](Cc2ccc(O)cc2)NC(=O)[C@@H](NC(=O)[C@@H](Cc2ccccc2)NC(=O)CN2CCN(CCNC(=O)CCOCCOCCOCCOCCOCCOCCOCCOCCOCCOCCOCCOCCNC(=O)CCC(=O)N[C@H](CC(=O)O)C(=O)O[C@]3(CC)C(=O)OCc4c3cc3n(c4=O)Cc4cc5ccccc5nc4-3)CC2)CSSC[C@@H](C(=O)N[C@H](C(N)=O)[C@@H](C)O)NC1=O [Example 30, Camptothecin-rvDAsp-Suc-Peg11-Aepa-DPhe-c(Cys-Tyr-DTrp-Lys-Abu-Cys)-Thr-NH2] | – | – | – | – | – | ≥ 1000 |
| CC[C@@H]1NC(=O)[C@H](CCCCN)NC(=O)[C@@H](Cc2c[nH]c3ccccc23)NC(=O)[C@H](Cc2ccc(O)cc2)NC(=O)[C@@H](NC(=O)[C@@H](Cc2ccccc2)NC(=O)CN2CCN(CCNC(=O)COCCOCCNC(=O)COCCOCCNC(=O)COCCOCCNC(=O)COCCOCCNC(=O)CCC(=O)NCCCCC(=O)O[C@]3(CC)C(=O)OCc4c3cc3n(c4=O)Cc4cc5ccccc5nc4-3)CC2)CSSC[C@@H](C(=O)N[C@H](C(N)=O)[C@@H](C)O)NC1=O [Example 11, Camptothecin-rvApn-Suc-(Doc)4-Aepa-D-Phe-c(Cys-Tyr-D-Trp-Lys-Abu-Cys)-Thr-NH2] | – | – | 3.7 | 5 | ≥ 1000 | ≥ 1000 |
| CC[C@@H]1NC(=O)[C@H](CCCCN)NC(=O)[C@@H](Cc2c[nH]c3ccccc23)NC(=O)[C@H](Cc2ccc(O)cc2)NC(=O)[C@@H](NC(=O)[C@@H](Cc2ccccc2)NC(=O)CN2CCN(CCNC(=O)COCCOCCNC(=O)COCCOCCNC(=O)COCCOCCNC(=O)COCCOCCNC(=O)CCC(=O)N[C@@H](CNC(=O)OCc3ccccc3)C(=O)O[C@]3(CC)C(=O)OCc4c3cc3n(c4=O)Cc4cc5ccccc5nc4-3)CC2)CSSC[C@@H](C(=O)N[C@H](C(N)=O)[C@@H](C)O)NC1=O [Example 8, Camptothecin-rvDap(Z)-Suc-(Doc)4-Aepa-D-Phe-c(Cys-Tyr-D-Trp-Lys-Abu-Cys)-Thr-NH2] | – | – | 2.2 | 0.7 | ≥ 1000 | ≥ 1000 |
| CC[C@@H]1NC(=O)[C@H](CCCCN)NC(=O)[C@@H](Cc2c[nH]c3ccccc23)NC(=O)[C@H](Cc2ccc(O)cc2)NC(=O)[C@@H](NC(=O)[C@@H](Cc2ccccc2)NC(=O)CN2CCN(CCNC(=O)COCCOCCOCCNC(=O)COCCOCCOCCNC(=O)COCCOCCOCCNC(=O)CCC(=O)N[C@H](CC(=O)O)C(=O)O[C@]3(CC)C(=O)OCc4c3cc3n(c4=O)Cc4cc5ccccc5nc4-3)CC2)CSSC[C@@H](C(=O)N[C@H](C(N)=O)[C@@H](C)O)NC1=O [Example 29, Camptothecin-rvDAsp-Suc-(Peg3)3-Aepa-DPhe-c(Cys-Tyr-DTrp-Lys-Abu-Cys)-Thr-NH2] | – | – | 44.1 | 9.3 | – | ≥ 1000 |
| CC[C@@H]1NC(=O)[C@H](CCCCN)NC(=O)[C@@H](Cc2c[nH]c3ccccc23)NC(=O)[C@H](Cc2ccc(O)cc2)NC(=O)[C@@H](NC(=O)[C@@H](Cc2ccccc2)NC(=O)CN2CCN(CCNC(=O)COCCOCCNC(=O)COCCOCCNC(=O)COCCOCCNC(=O)COCCOCCNC(=O)CCC(=O)N[C@H](CCC(=O)O)C(=O)O[C@]3(CC)C(=O)OCc4c3cc3n(c4=O)Cc4cc5ccccc5nc4-3)CC2)CSSC[C@@H](C(=O)N[C@H](C(N)=O)[C@@H](C)O)NC1=O [Example 31, Camptothecin-rvDGlu-Suc-(Doc)4-Aepa-DPhe-c(Cys-Tyr-DTrp-Lys-Abu-Cys)-Thr-NH2] | – | – | – | – | – | ≥ 1000 |
| CCCC[C@H](NC(=O)[C@H](CC(C)C)NC(=O)[C@H](Cc1c[nH]cn1)NC(=O)CCNC(=O)[C@@H](NC(=O)[C@H](C)NC(=O)[C@H](Cc1c[nH]c2ccccc12)NC(=O)[C@H](CCC(N)=O)NC(=O)[C@@H](Cc1ccc(O)cc1)NC(=O)[C@@H](C)NC(=O)[C@H](CCCNC(=N)N)NC(=O)COCCOCCNC(=O)COCCOCCNC(=O)COCCOCCNC(=O)COCCOCCNC(=O)CCC(=O)NCC(=O)O[C@]1(CC)C(=O)OCc2c1cc1n(c2=O)Cc2cc3ccccc3nc2-1)C(C)C)C(N)=O [Example 26, Camptothecin-rvGly-Suc-(Doc)4-Arg-D-Ala-D-Tyr-Gln-Trp-Ala-Val-β-Ala-His-Leu-Nle-NH2] ({X1-Gly-Suc-AEEA-AEEA-AEEA-AEEA}-R[dA][dY]QWAV[βAla]HL[Nle]-NH2) | – | – | 1.8 | 1.4 | – | – |
| CCc1c2c(nc3ccc(O)cc13)-c1cc3c(c(=O)n1C2)COC(=O)[C@@]3(CC)OC(=O)CNC(=O)CCC(=O)NCCOCCOCC(=O)NCCOCCOCC(=O)NCCOCCOCC(=O)NCCOCCOCC(=O)NCCN1CCN(CC(=O)N[C@H](Cc2ccccc2)C(=O)N[C@H]2CSSC[C@@H](C(=O)N[C@H](C(N)=O)[C@@H](C)O)NC(=O)[C@H](CC)NC(=O)[C@H](CCCCN)NC(=O)[C@@H](Cc3c[nH]c4ccccc34)NC(=O)[C@H](Cc3ccc(O)cc3)NC2=O)CC1 [Example 19, SN38-rvGly-Suc-(Doc)4-Aepa-D-Phe-c(Cys-Tyr-D-Trp-Lys-Abu-Cys)-Thr-NH2] | – | – | 2.6 | 6.9 | – | ≥ 1000 |

Reference: US8236762B2, “Peptide-cytotoxic conjugates” (IPSEN Pharma S.A.S., priority 2006, dated 2012)
